Experimental data taken from US7217548B2, “N-acetylglucosaminlytransferase and polynucleotide encoding the same” (National Institute of Advanced Industrial Science and …, priority 2000, dated 2007).
Values belong to the molecule of their own block, whether it stands above or below them.

Key:
GnT-I = target: T1, GnT-I (Homo sapiens, UniProt P26572); assay: GnT-I activity assay of solubilized enzymes; type: biochemical; settings: method of Reference Example 2
T1 construct: Ig kappa chain secretory signal (N); made in house; host or cells: HEK293T (transient, secreted into serum-free medium)
T1 sequence (P26572 39-445 limits assumed): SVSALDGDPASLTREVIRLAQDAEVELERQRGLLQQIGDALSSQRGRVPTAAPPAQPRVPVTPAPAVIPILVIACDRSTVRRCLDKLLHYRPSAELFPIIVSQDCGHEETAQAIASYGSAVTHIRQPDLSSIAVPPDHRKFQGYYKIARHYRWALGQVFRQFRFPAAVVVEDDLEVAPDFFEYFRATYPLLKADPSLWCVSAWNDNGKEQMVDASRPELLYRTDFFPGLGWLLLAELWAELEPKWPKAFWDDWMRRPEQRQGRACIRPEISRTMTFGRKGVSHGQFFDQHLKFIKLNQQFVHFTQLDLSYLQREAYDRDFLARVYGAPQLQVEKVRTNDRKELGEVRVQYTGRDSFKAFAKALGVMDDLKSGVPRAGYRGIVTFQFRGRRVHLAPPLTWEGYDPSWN
Description: The activity of GnT-1 was assayed with a method by Yoshida et al. [Yoshida, S., Suzuki, M., Yamano, S., Takeuchi, M., Ikenaga, H., Kioka, N., Sakai, H., and Komano, T., Glycobiology, (1999), 9, 53–58] as described below. A 20 μl reaction solution was prepared by adding an enzyme source thereto so as to have a final concentration of 100 mM MES (pH 6.0), 20 mM MnCl2, 5 μM Manα1–6(Manα1–3)Manα1–6(Manα1–3)Manβ1–4GlcNAcβ1–4GlcNAc-PA(M5GN2-PA; Takara Shuzo, PA-Sugar Chain 017), 1 mM UDP-GlcNAc, 100 mM GlcNAc, 5 mM AMP, 1% Triton X-100, and 0.2% BSA. The reaction solution was incubated at 37° C. for 1 hour, and the reaction was terminated in boiling water. Thereafter, the reaction solution was analyzed by a reverse phase HPLC (Cosmosil 5C18-AR column) available from Nacalai Tesque.
When Manα1–6(Manα1–3)Manβ1–4GlcNAcβ1–4GlcNAc-PA (M3GN2-PA; Takara Shuzo, PA-Sugar Chain 016) was used as a sugar receptor, the same method was employed for analysis.

OMGnT = OMGnT activity in serum-free medium of HEK293T cells expressing solubilized enzymes; type: biochemical, human; settings: serum-free medium of HEK293T transfectants
Description: The enzyme solution was added to 140 mM MES [2-(N-morpholino) ethanesulfonic acid] buffer (pH 7.0) containing 0.4 mM Man-peptide, 0.2 mM UDP-[^3H]GlcNAc (up to 228,000 dpm/nmol), 10 mM MnCl2, 5 mM AMP, 200 mM GlcNAc, 2%(w/v) Triton X-100, 10% glycerol, 2 μg/ml antipain, 2 μg/ml chymostatin, 3 μg/ml pepstatin A, 2 μg/ml leupeptin, 1 mM benzamidine-HCl, and 1 mM PMSF (phenylmethylsulfonyl fluoride) to prepare 50 μl of reaction solution. After the reaction at 37° C. for 3 hours, the reaction was terminated by 3 minutes of boiling. The reaction mixture was then filtered with a filter Ultrafree-MC (Millipore) having a pore size of 0.22 μm to remove solids, and analyzed by Wakopak 5C18-200 column (4.6×250 mm, Wako Pure Chemical Industries, Ltd.). The separation was carried out using concentration gradient with Solution A and Solution B at a flow rate of 1.0 ml/min. […] Peptide detection was carried out at 214 nm, and the radioactivity of each fraction was assayed using a liquid scintillation counter.
Each secretory expression plasmid was transiently expressed in a HEK293T cell derived from human embryonic kidney. Usually, HEK293T cells were cultured in D-MEM (Gibco, #11995-065) containing 10% Fetal Calf Serum (Hyclone), 10 mM MEM Non-Essential Amino Acids solution (Gibco), 2 mM Glutamine (Gibco), and 100 units/ml Penicillin/100 μg/ml Streptomycin (Gibco). In a 6-well plate, 2 μg of plasmid was transfected into 50 to 70% confluent cells by calcium phosphate method. After overnight cultivation, the medium exchange was performed and the cultivation was continued for 48 hours [Pear, W. S., Nolan, G. P., Scott, M. L. and Baltimore, D., Proc. Natl. Acad. Sci. USA, (1993), 90, 8392–8396]. Further, the medium was exchanged with a serum-free medium, and after 48-hour cultivation, the supernatant was collected.
According to the method described in Example 1, OMGnT activity in the serum-free medium was assayed.

GnT-I activity (GnT-I): 500 pmol/hr/ml medium
B1: His-Xpress-sGnT-I: control: solubilized human GnT-I enzyme, 407 amino acids from 39:Ser (protein)
chain: T1 sequence (P26572 39-445 limits assumed)
modifications: left off: small tags and cut ends
notes: control: solubilized human GnT-I enzyme, 407 amino acids from 39:Ser
OMGnT activity (OMGnT): 0.4 pmol/hr/mg protein
OMGnT activity (in words) (OMGnT): almost no activity

GnT-I activity (in words) (GnT-I): did not exhibit activity at all
B2: His-Xpress-sOMGnT(S): solubilized human OMGnT, 414 amino acids 247:Ser to 660:Thr of SEQ ID NO: 2, secreted from HEK293T; plasmid named in Table 3 (protein, listed as Homo sapiens)
chain: SSAEEAECHWADTELNRRRRRFCSKVEGYGSVCSCKDPTPIEFSPDPLPDNKVLNVPVAVIAGNRPNYLYRMLRSLLSAQGVSPQMITVFIDGYYEEPMDVVALFGLRGIQHTPISIKNARVSQHYKASLTATFNLFPEAKFAVVLEEDLDIAVDFFSFLSQSIHLLEEDDSLYCISAWNDQGYEHTAEDPALLYRVETMPGLGWVLRRSLYKEELEPKWPTPEKLWDWDMWMRMPEQRRGRECIIPDVSRSYHFGIVGLNMNGYFHEAYFKKHKFNTVPGVQLRNVDSLKKEAYEVEVHRLLSEAEVLDHSKNPCEDSFLPDTEGHTYVAFIRMEKDDDFTTWTQLAKCLHIWDLDVRGNHRGLWRLFRKKNHFLVVGVPASPYSVKKPPSVTPIFLEPPPKEEGAPGAPEQT
modifications: His-Xpress tag
OMGnT activity (OMGnT): 20 pmol/hr/mg protein
OMGnT activity (in words) (OMGnT): significantly high OMGnT activity
